According to patent US20260069689A1 (Regeneron, published 2026):

Molecular target: SARS-COV-2 RBD extracellular domain expressed with a C-terminal myc-myc-hexahistidine tag (SARS-COV-2 RBD-mmH) (SARS-CoV-2)
Assay: SPR Biacore, mAb captured on anti-hFc, RBD-mmH analyte, 37 C

B1: mAb15159 (antibody, V domains shown)
VH: EVQLVESGGGLVQPGGSLRLSCAASGITVSSNYMTWVRQAPGKGLEWVSLIYSGGSTFYADSVRGRFTISRDNSKNTLYLQMNSLRAEDTAVYYCARDLVVYGMDVWGQGTTVTVSS
VL: DIQLTQSPSSLSASVGDRVTITCRASQGISSYLAWYQQKPGKAPKLLIYAASTLQSGVPSRFSGSGSGTDFTLTISSLQPEDFATYYCQHLNSDPHTFGQGTKLEIKR
Kd: 1.21 nM
koff: 0.000176 s⁻¹
kon: 146000 M⁻¹ s⁻¹
t½: 65.6 min

B2: mAb14286 (antibody, V domains shown)
VH: QVQLVQSGAEVKKPGASVKVSCKASGYTFTDYFIHWVRQAPGQGLEWMGWINPTSGGTNYAQKFRGRVTMTRDTSISTAYVELSRLRSDDTALYYCARDLPFYSDTKQFDYWGQGTLVTVSS
VL: QSALTQPASVSGYPGQSITISCTGTSSDVGGYNYVSWYQQHPGKAPKLMIFDVSNRPSGVSNRFSGSKSGNTASLTFSGLQAEDEADYYCSSYTSSSTLVFGGGTKLTVLG
Kd: 3.07 nM
koff: 0.0104 s⁻¹
kon: 3.38e+06 M⁻¹ s⁻¹
t½: 1.1 min

B3: mAb14256 (antibody, V domains shown)
VH: QVQLQESGPGLVKPSETLSLTCTVSGGSISSHYWSWIRQPPGKGLEWIGYIYYSGSSNYNPSLKSRVTISVDTSKNQFSLKLNSVTAADTAVYYCARHYDILTGFDWFDPWGQGTLVTVSS
VL: QSVLTQPPSVSGAPGQRVTISCTGSSSNIGTHYDVHWYQQLPGTAPKLLIYGNSNRPSGVPDRFSGSKSGTSASLAITGLQAEDEADYYCQSFDNSLTAPYVFGTGTKVTVLG
Kd: 8.24 nM
koff: 0.0115 s⁻¹
kon: 1.4e+06 M⁻¹ s⁻¹
t½: 1 min

B4: mAb14280 (antibody, V domains shown)
VH: QVQLVQSGAEVKKPGASVRVSCKASGYTFTGNYIHWVRQAPGQGLEWMAWINPNSGGKNYAQKFQGRVTLTRDTSVNTAYMELSRLRSDDTAMYYCARDVNYNILTGPGGLWGQGTLVTVSS
VL: QSALTQPPSASGSPGQSVTISCTGTSSDVGGYNFVSWYQQHPGKAPKLMIYEVSKRPSGVPDRFSGSKSGNTASLTVSGLQAEDEADYYCSSYAGSNNFVFGTGTKVTVLG
Kd: 16.2 nM
koff: 0.0248 s⁻¹
kon: 1.53e+06 M⁻¹ s⁻¹
t½: 0.5 min

B5: mAb14292 (antibody, V domains shown)
VH: EVQLVESGGGLVQPGGSLRLSCVASGFAFSTYEMNWVRQAPGKGLEWVSYISSSGSTIYYADSVKGRLTISRDNVKNSLYLQMNSLRVEDTAIYYCARDAIRNNDILTDPATFDPWGQGTLVTVSS
VL: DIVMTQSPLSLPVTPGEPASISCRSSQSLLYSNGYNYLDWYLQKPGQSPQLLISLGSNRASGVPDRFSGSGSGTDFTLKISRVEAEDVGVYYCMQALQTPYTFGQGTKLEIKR
Kd: 60.7 nM
koff: 0.0218 s⁻¹
kon: 359000 M⁻¹ s⁻¹
t½: 0.5 min

B6: mAb14234 (antibody, V domains shown)
VH: QVQLVESGGGVVQPGRSLRLSCAASGFTFSSYGIHWVRQAPGKGLEWVAIIWYDGSEKYYADSVKGRFTISRDNSKNTLFLQMNSLEAEDTAVYYCARGPDLLTGYYNYFYYGMDVWGQGTTVTVSS
VL: QSVLTQPPSVSGAPGQRVTISCTGSSSNIGIGYDVHWYQQLPGTVPKLLIYGNTNRPSGVPDRFSGSKSGTSASLAITGLQAEDEADYYCQSYDSSLSSYVFGTGTKVTVLG
Kd: 22.3 nM
koff: 0.0119 s⁻¹
kon: 534000 M⁻¹ s⁻¹
t½: 1 min

B7: mAb14232 (antibody, V domains shown)
VH: QITLKESGPTLVKPTQTLTLTCTFSGFSLSASGVGVGWIRQPPGKALEWLALIYWDDDKRYSPSLKSRLTITKDTSKNQVVLTMTNMDPVDTATYYCAQHKVATIFDYWGQGTLVTVSS
VL: QSALTQPPSASGSPGQSVTISCTATSSDVGNYNYVSWYQQHPGKAPKLMIYEVTKRPSGVPDRFSGSKSGNTASLTVSGLQAEDEADYYCSSYAGSWGVFGGGTKLTVLG
Kd: 7.92 nM
koff: 0.0372 s⁻¹
kon: 4.69e+06 M⁻¹ s⁻¹
t½: 0.3 min

B8: mAb15157 (antibody, V domains shown)
VH: EVQLVESGGALVQPGGSLRLSCAASGFPFTIYAMTWVRQAPGKGLEWVSVITGSGDSTYYADSVKGRFTISRDNSKNTLYLQMNSLRAEDTAVYYCVKTGEGFFYYYYGMDVWGQGTTVTVSS
VL: QSVLTQPPSVSAAPGQKVTISCSGSSSNIGNSYISWYQQLPGTAPKLLIYVNNKRPSGIPDRFSGSKSGTSATLGITGLQTGDEADYYCGTWDSSLSAGVFGSGTKVTVLG
Kd: 11.6 nM
koff: 0.00399 s⁻¹
kon: 344000 M⁻¹ s⁻¹
t½: 2.9 min

B9: mAb15158 (antibody, V domains shown)
VH: EVQLVESGGGLVQPGGSLRLSCAASGFSFSSNWMSWVRQAPGKGLEWVGNINQDGSEKYYVDSVEGRFTISRDNAKKSLYLQMNSLRAEDTAVYYCARDLGVLWFGDFVDWGQGALVTVSS
VL: DIQMTQSPSSLSASVGDRVTITCRASQAISNSLAWYQQKPGKAPKLLLYAASTLESGVPSRFSGSGSGTDYTLTISSLQPEDFATYYCLQYYGSPRTFGQGTKVEIKR
Kd: 1.65 nM
koff: 0.000207 s⁻¹
kon: 126000 M⁻¹ s⁻¹
t½: 55.7 min

B10: mAb14282 (antibody, V domains shown)
VH: QVQLVQSGAEVKKPGASVKVSCKASGYIFTDHYMHWVRQAPGQGLEWMGWINPNSGATNYAQNFQGRVTMTRDTSIITVYMELSRLRSDDTAVYYCARDSSPYMIRYTMDVWGQGTTITVSS
VL: QSALTQPASVSGSPGQSITISCTGTSSDVGSYNLVSWYQQHPGKAPKLMIYELTKRPSGVSNRFSGSKSGNTASLTISGLQAEDEADYYCSSYRGSVTDVVFGGGTKLTVLG
Kd: 5.37 nM
koff: 0.0106 s⁻¹
kon: 1.98e+06 M⁻¹ s⁻¹
t½: 1.1 min

B11: mAb14230 (antibody, V domains shown)
VH: EVQLVESGGGLIQPGRSLRLSCAASGFTFDDYAMHWVRQAPGKGLEWVSGISWNSVSIDYADSVKGRFTISRDNAKNSLYLQMTSLTVEDTALYYCAKAFGYETLTGSDYFAYWGPGTLVTVSS
VL: EIVLTQSPGTLSLSPGERATLSCRASQTVISTYLAWYQQKPGQSPRLLIYGASSRATGIPDRFSGSGSGTDFTLTISRLEPEDFAVYYCQQYGSSPQLTFGGGTKVEIKR
Kd: 7.61 nM
koff: 0.00876 s⁻¹
kon: 1.15e+06 M⁻¹ s⁻¹
t½: 1.3 min

B12: mAb14285 (antibody, V domains shown)
VH: QVQLVQSGAEVKKPGASVKVSCKASGYTFTGYFIHWVRQAPGQGLEWMGWISPISGGTNYAQKFQGRVTVTRDTSITTAYMELSRLTSDDTAVYHCAREGGTWKGDFDYWGQGTLVTVSS
VL: QSALTQPASVSGSPGQSITISCTGTSSDVESYNLVSWYQQHPGKAPKLMIYEGSKRPSGVSNRFSGSKSGNTASLTISGLQAEDEADYYCSSYAGSSTWVFGGGTKLTVLG
Kd: 13.1 nM
koff: 0.0274 s⁻¹
kon: 2.09e+06 M⁻¹ s⁻¹
t½: 0.4 min

B13: mAb15156 (antibody, V domains shown)
VH: QLQLQESGPGLVKSSETLSLTCTVSASITGSTYYWGWIRQPPGKGLEWIGSIYYSGTTYYKASLKSRVTISVDTSKNQFSLKLTSVTVADTAVYYCVSHLLGNYHKYGMDVWGQGTTVTVSS
VL: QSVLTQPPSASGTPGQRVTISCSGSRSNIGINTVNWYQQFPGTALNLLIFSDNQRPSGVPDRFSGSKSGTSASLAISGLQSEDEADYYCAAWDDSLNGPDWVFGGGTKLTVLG
Kd: 14.4 nM
koff: 0.00535 s⁻¹
kon: 373000 M⁻¹ s⁻¹
t½: 2.2 min

B14: mAb14281 (antibody, V domains shown)
VH: QVQLVQSGADVKKPGASVKVSCKTSGYIFTGYYIHWVRQAPGQGLEWMGWINPNSGGTNSAQKFQGRVTMTRDTSISTVYMELSRLRSDDTAVYYCAKSNSFSVLDYNFDYWGQGTLVTVSS
VL: SSELTQDPAVSVALGQTVRITCQGDSLRSYYASWYQQKPGQAPVLVIYDKNNRPSGIPDRFSGSSSGNTASLTITGAQAEDEADYYCNSRDSSRNHLVVFGGGTKLTVLG
Kd: 5.2 nM
koff: 0.00582 s⁻¹
kon: 1.12e+06 M⁻¹ s⁻¹
t½: 2 min
